Laboratory results from the Human Domainome abundance scans (Beltran et al. 2025).
± gives the uncertainty stated by the source.

B1: WW domain-containing transcription regulator protein 1, residues 116 to 162; numbered along this chain, Q9GZV5 (parent)
chain: QSYDVTDELPLPPGWEMTFTATGQRYFLNHIEKITTWQDPRKAMNQP
B2: SH3 and PX domain-containing protein 2B, residues 155 to 209; numbered along this chain, A1X283 (parent)
chain: EQYVVVANYQKQESSEISLSVGQVVDIIEKNESGWWFVSTAEEQGWVPATCLEGQ

Variants of: B1
Assay: abundance fitness (aPCA) (normalised: wild type 0, dead -1); higher = more abundant; growth selection in yeast, the domain comes from the species named
Conditions: Homo sapiens

Point of comparison: Q46A, abundance fitness -0.138 ± 0.039. Against it:
- Q46W — higher, -0.046 ± 0.041
- Q46S — higher, -0.053 ± 0.041
- Q46V — higher, -0.018 ± 0.028
- Q46M — within error, -0.098 ± 0.039
- Q46R — within error, -0.156 ± 0.035
- Q46K — within error, -0.164 ± 0.058
- Q46E — higher, 0.037 ± 0.032
- Q46G — higher, -0.058 ± 0.033
- Q46C — higher, -0.021 ± 0.027
- Q46T — within error, -0.058 ± 0.045
- Q46L — higher, -0.022 ± 0.033
- Q46I — within error, -0.044 ± 0.063
- Q46D — higher, 0.058 ± 0.043
- Q46P — higher, 0.026 ± 0.037
- A43D — higher, 0.071 ± 0.048
- A43F — higher, -0.016 ± 0.054
- A43Y — within error, -0.127 ± 0.044
- A43S — higher, 0.01 ± 0.04
- A43L — higher, -0.008 ± 0.037
- A43V — higher, -0.025 ± 0.039
- A43P — higher, -0.014 ± 0.031
- A43K — higher, -0.006 ± 0.061
- A43G — higher, -0.013 ± 0.031
- A43E — higher, -0.018 ± 0.036
- A43I — within error, -0.073 ± 0.067
- A43M — higher, -0.038 ± 0.059
- A43Q — within error, -0.056 ± 0.051
- A43C — higher, -0.056 ± 0.035
- A43N — higher, 0.046 ± 0.056
- A43W — higher, 0.086 ± 0.048
- A43T — higher, 0.027 ± 0.045

Variants of: B2
Assay: as above
Conditions: Homo sapiens

Point of comparison: EQYVVVANYQKQESSEISLSVGQVVDIIEKNESGWWFVSTAEEQGWVPYTCLEGQ [A49Y], abundance fitness -0.237 ± 0.16. Against it:
- EQYVVVANEQKQESSEISLSVGQVVDIIEKNESGWWFVSTAEEQGWVPATCLEGQ [Y9E] — lower, -0.597 ± 0.11
- EQYVVVANYQKQESSEISLSVGQVVDIIEKNKSGWWFVSTAEEQGWVPATCLEGQ [E32K] — within error, -0.326 ± 0.13
- EQYVVVANYQKQESSEISLSVGQVVDIIEKNSSGWWFVSTAEEQGWVPATCLEGQ [E32S] — within error, -0.07 ± 0.071
- EQYVNVANYQKQESSEISLSVGQVVDIIEKNESGWWFVSTAEEQGWVPATCLEGQ [V5N] — lower, -0.946 ± 0.27
- EQYVKVANYQKQESSEISLSVGQVVDIIEKNESGWWFVSTAEEQGWVPATCLEGQ [V5K] — within error, -0.552 ± 0.35
- EQYVRVANYQKQESSEISLSVGQVVDIIEKNESGWWFVSTAEEQGWVPATCLEGQ [V5R] — lower, -1.04 ± 0.12
- EQYVVVANYQKQESSEISLSVGQVVDIIEKNESGWWFVSTAEEQGWVPATELEGQ [C51E] — lower, -0.944 ± 0.19
- EQYVVVANYQKQESSEISLSVGQVVDIIEKNESGWWFVSTAEEQGWVPATTLEGQ [C51T] — within error, -0.222 ± 0.12
- EAYVVVANYQKQESSEISLSVGQVVDIIEKNESGWWFVSTAEEQGWVPATCLEGQ [Q2A] — within error, -0.247 ± 0.11
- ETYVVVANYQKQESSEISLSVGQVVDIIEKNESGWWFVSTAEEQGWVPATCLEGQ [Q2T] — within error, -0.148 ± 0.12
- ECYVVVANYQKQESSEISLSVGQVVDIIEKNESGWWFVSTAEEQGWVPATCLEGQ [Q2C] — within error, -0.086 ± 0.14
- EQYVVVANYQKQESSEISLSVGDVVDIIEKNESGWWFVSTAEEQGWVPATCLEGQ [Q23D] — within error, -0.034 ± 0.087
- EQYVVVANYQKQESSVISLSVGQVVDIIEKNESGWWFVSTAEEQGWVPATCLEGQ [E16V] — lower, -0.92 ± 0.093
- EQYVVVANYQKQESSEISLSVGQVVDIIEPNESGWWFVSTAEEQGWVPATCLEGQ [K30P] — within error, -0.495 ± 0.15
- EQYAVVANYQKQESSEISLSVGQVVDIIEKNESGWWFVSTAEEQGWVPATCLEGQ [V4A] — within error, -0.047 ± 0.082
- EQYVVVANYQKQESSEISLSVGQVVDIIEKNESGWWFVSTAEEQGWVPATCLENQ [G54N] — within error, 0.025 ± 0.12
- EQYVVVANYQKQESSEISLSWGQVVDIIEKNESGWWFVSTAEEQGWVPATCLEGQ [V21W] — lower, -0.566 ± 0.13
- EQYVVVANYQKQESSEISLSEGQVVDIIEKNESGWWFVSTAEEQGWVPATCLEGQ [V21E] — higher, 0.096 ± 0.1
- EQYVVVANYQKQESSEISLSVGQVVDIIEKNEHGWWFVSTAEEQGWVPATCLEGQ [S33H] — within error, -0.046 ± 0.13
- EQYVVVANYQKQESSEISLSVGQVVDIIEKNEEGWWFVSTAEEQGWVPATCLEGQ [S33E] — within error, -0.002 ± 0.12
- EQYVVVANYQRQESSEISLSVGQVVDIIEKNESGWWFVSTAEEQGWVPATCLEGQ [K11R] — higher, 0.069 ± 0.065
- EQYVVVANYQQQESSEISLSVGQVVDIIEKNESGWWFVSTAEEQGWVPATCLEGQ [K11Q] — within error, -0.132 ± 0.13
- EQYVVVANYQKQESSEISLSVGQVVDIIEKNESGWWFVSTAEEQGQVPATCLEGQ [W46Q] — within error, -0.37 ± 0.18
- EQYVVVANYQKQESSEISLSVGQVVDIIEKNESGWWFVSTAEEQGAVPATCLEGQ [W46A] — lower, -0.599 ± 0.086
- EQYVVVANYQKQESSEISLSVGQVVDIIEKNESGWWFVKTAEEQGWVPATCLEGQ [S39K] — within error, -0.035 ± 0.13
- EQYVVVANYQKQESSEISLSVGQVVDIIEKNESGWWFVCTAEEQGWVPATCLEGQ [S39C] — within error, -0.022 ± 0.11
- EQYVVVANYQKQESSEISLSVGQVVCIIEKNESGWWFVSTAEEQGWVPATCLEGQ [D26C] — within error, -0.269 ± 0.15
- EQYVVVANYQKQESSEISLSVGQVVDIIEKNESGWWFVSTAEEQGWPPATCLEGQ [V47P] — lower, -0.922 ± 0.18
- EQYVVVANYQKQESSEISLSVGQVVDIIEKNESGWWFVSTAEEQGWWPATCLEGQ [V47W] — lower, -1.11 ± 0.18
- EQYVVVANYMKQESSEISLSVGQVVDIIEKNESGWWFVSTAEEQGWVPATCLEGQ [Q10M] — within error, -0.476 ± 0.14
- EQYVVVANYAKQESSEISLSVGQVVDIIEKNESGWWFVSTAEEQGWVPATCLEGQ [Q10A] — within error, 0.003 ± 0.087
- EQYVVVANYEKQESSEISLSVGQVVDIIEKNESGWWFVSTAEEQGWVPATCLEGQ [Q10E] — higher, 0.125 ± 0.11
- EQYVVVANYQKQESSEISLSVGQVVDIIEKNESGGWFVSTAEEQGWVPATCLEGQ [W35G] — within error, -0.398 ± 0.074
- EQYVVVANYQKQESSEISLSVGQVVDIIEKNESGAWFVSTAEEQGWVPATCLEGQ [W35A] — within error, -0.172 ± 0.072
- EQYVVVANYQKQESSEISLSVGQVVDIIEKNESGWWFVSTAEDQGWVPATCLEGQ [E43D] — within error, 0.087 ± 0.25
- EQYVVVANYQKQESSEISLSVGQVVDIIEKNESGWWFVSTAELQGWVPATCLEGQ [E43L] — within error, -0.263 ± 0.076
- EQYVVVANYQKQESSEISLSVGQVVDIIEKNESGWWFVSTAEGQGWVPATCLEGQ [E43G] — higher, 0.041 ± 0.063
- EQYVVVANYQKQESSEISLSVGQVVDIIEKNESGWWFVSTAEKQGWVPATCLEGQ [E43K] — within error, -0.167 ± 0.26
- EQYVVVANYQKQESSEVSLSVGQVVDIIEKNESGWWFVSTAEEQGWVPATCLEGQ [I17V] — within error, -0.048 ± 0.086
- EQYVVVADYQKQESSEISLSVGQVVDIIEKNESGWWFVSTAEEQGWVPATCLEGQ [N8D] — higher, 0.04 ± 0.11
- EQYVVVANYQKQESSEISLSVGQVVDIIEKNESGWWFVSTAEEQGWVPATCLEGH [Q55H] — within error, -0.004 ± 0.45
- EQYVVVANYQKQESSEISLSVGQVVDIIEKNESGWWFVSTAEEQGWVPATCLEGE [Q55E] — within error, -0.341 ± 0.44
- EQYVVVANYQKQGSSEISLSVGQVVDIIEKNESGWWFVSTAEEQGWVPATCLEGQ [E13G] — within error, -0.074 ± 0.065
- EQYVVVANYQKQTSSEISLSVGQVVDIIEKNESGWWFVSTAEEQGWVPATCLEGQ [E13T] — within error, -0.104 ± 0.1
- EQYVVVANYQKQESSEISDSVGQVVDIIEKNESGWWFVSTAEEQGWVPATCLEGQ [L19D] — lower, -0.894 ± 0.28
- EQYVVVANYQKQESSEISLSVGQVVDIDEKNESGWWFVSTAEEQGWVPATCLEGQ [I28D] — within error, -0.451 ± 0.1
- EQYVVVANYQKQESSEISLSVGQVVDIIEKNESGWWFVSTAWEQGWVPATCLEGQ [E42W] — within error, -0.118 ± 0.079
- EQYVVVANYQKQESSEISLSVGQVVDIIEKNESGWWFVSLAEEQGWVPATCLEGQ [T40L] — within error, -0.031 ± 0.071
- EQYVVVANYQKQESSEISLSVGQVVDIIEKNESGWWFVSTAEEQGWVPKTCLEGQ [A49K] — within error, -0.053 ± 0.12
- EQYVVVANYQKQESSEISLSVGQVVDIIEKTESGWWFVSTAEEQGWVPATCLEGQ [N31T] — within error, -0.154 ± 0.1
- EQYVVVANYQKQESSEISLSVGQVVDIIEKDESGWWFVSTAEEQGWVPATCLEGQ [N31D] — within error, -0.116 ± 0.077
- EQYVVVANYQKQESSEISLEVGQVVDIIEKNESGWWFVSTAEEQGWVPATCLEGQ [S20E] — within error, 0.09 ± 0.21
- EQYVVVANYQKQESSEISLSVGQVVDIIEKNESGWWFVSTAEEQQWVPATCLEGQ [G45Q] — lower, -0.734 ± 0.15
- EQYVVVANYQKQESSEISLSVGQVVDIIEKNESGWWFVSTAEEQGWVQATCLEGQ [P48Q] — lower, -0.568 ± 0.17
- EQYVVVANYQKQESSEISLSVGQVVDIIEKNESGWWFVSTAEEQGWVAATCLEGQ [P48A] — lower, -0.626 ± 0.11
- EQYVVVANYQKQESSEISLSVGQVVDIIEKNESGWWFVSTAEEQGWVTATCLEGQ [P48T] — lower, -0.888 ± 0.16
- EQYVVVANYQKQESSEISLSVCQVVDIIEKNESGWWFVSTAEEQGWVPATCLEGQ [G22C] — lower, -0.638 ± 0.097
- EQYVVVANYQKQESSEISLSVEQVVDIIEKNESGWWFVSTAEEQGWVPATCLEGQ [G22E] — lower, -0.673 ± 0.11
- EQYVVVANYQKQESSEISLSVPQVVDIIEKNESGWWFVSTAEEQGWVPATCLEGQ [G22P] — lower, -0.83 ± 0.15
